Data: the supplement of paper PMC10567573

B1: DYRK1B (parent)
chain: KKVLNHGYDDDNHDYIVRSGERWL
B2: CCDC6 (parent)
chain: FTPPTSLTRAGMSYYNSPGLHVQH

Variants of: B1
Test: protein stability index of a GFP-peptide fusion (GPS, HEK-293T) (PSI 1-6); higher = more stable
Conditions: c terminus: a fixed tail appended
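Note: lentivirally expressed fusions sorted by FACS into six bins by GFP to DsRed ratio, PSI derived from sequencing read proportions per bin multiplied by bin number.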

Protein stability index, by site and new letter:
G20: H 2.67 | D 3.22 | C 2.95 | I 2.73 | K 3.32 | T 2.83 | Y 2.23
R22: H 3.13 | S 3.35 | W 2.06 | A 3.15 | I 2.17 | L 2.25 | M 2.57 | C 2.85 | Y 2.52 | V 2.6 | P 3.16
L4: K 3.68 | D 4.28 | I 3.33 | A 3.68 | N 3.76 | V 2.58 | G 3.87 | W 3.1 | Y 2.99 | C 3.33 | P 3.36 | Q 4.12
H13: M 2.58 | E 4.24 | I 2.79 | S 3.42 | K 3.59 | T 3.35 | N 3.07 | V 2.96 | F 1.95 | A 3.06 | L 2.59 | Y 2.64 | Q 3.68
W23: V 4.31 | Y 3.64 | A 3.81 | H 3.99 | I 3.9 | P 3.7 | Q 4.2 | F 3.62 | R 3.6 | S 4.47 | L 3.88 | K 4.3
V3: M 3.04 | D 3.74 | P 2.94 | E 3.48 | Q 3.08 | L 2.88 | T 3 | H 3.12 | Y 2.73 | R 2.83 | S 3.47 | C 2.41 | N 3.15 | G 3.33
H6: A 2.81 | V 2.84 | P 3.27 | M 2.34 | N 3.38 | S 3.22 | Q 3.32 | I 3.01 | T 3.12 | L 2.51 | W 2.01 | K 3.52
Y8: N 4.15 | I 3.27 | L 3.36 | P 3.24 | V 3.58 | A 3.82 | C 3.24 | Q 3.77 | M 3.48 | F 3.46 | D 3.87 | K 3.58 | T 3.74
G7: L 2.24 | T 3.53 | M 3.07 | A 3.47 | P 3.15 | E 3.64 | W 2.74 | K 3.3 | N 3.23 | I 2.22 | S 3.21 | F 2.4 | R 3.31 | Y 2.93
D14: N 3.12 | Q 2.35 | A 2.78 | H 3.03 | G 2.71 | I 2.37 | Y 2.55 | S 2.82 | K 3 | F 2.21 | P 2.71 | M 2.58 | T 2.79 | W 1.85 | L 1.67
S19: C 2.59 | E 3.25 | R 2.78 | W 2.21 | N 3.22 | Q 3.46 | H 3.91 | T 3.06 | P 2.51 | G 3.25 | L 2.42
Y15: P 3.6 | I 3.5 | N 3.88 | F 3.09 | D 4.19 | C 3.58 | A 3.79 | K 3.56 | M 3.27 | R 3.72 | T 2.95 | H 3.42 | Q 4.05
D9: V 2.67 | W 1.53 | C 2.96 | M 2.83 | E 3.96 | A 2.89 | G 2.51 | S 2.34 | H 2.74 | L 2.39 | K 2.87
R18: D 3.78 | T 2.92 | W 2.38 | C 2.82 | A 3 | N 2.9 | M 2.39 | V 2.67 | H 3.4 | L 2.39
N5: D 3.41 | T 2.57 | E 3.46 | H 2.89 | I 2.82 | Y 2.33 | G 3.42 | M 2.8 | F 2.7 | W 2.72 | A 2.88 | P 3.39 | S 2.67
L24: R 3.55 | P 3.82 | E 4.07 | Q 3.69 | F 2.81 | C 3.46 | M 3.49 | H 3.57 | W 2.85 | K 3.85 | S 3.58
K1: F 2.41 | P 3.43 | S 3.23 | A 3.11 | V 2.29 | R 2.43 | D 3.62 | T 2.92 | E 3.24 | Y 2.38 | I 2.28
D10: A 3.02 | Q 2.99 | L 2.43 | T 3 | R 2.82 | H 2.75 | C 2.52 | F 1.83 | Y 3.06 | E 2.95 | I 2.3 | K 3.16
N12: R 3.27 | K 3.05 | A 2.7 | F 2.35 | E 3.36 | D 3.4 | W 2.01 | G 2.81 | M 2.29 | T 2.62 | I 2.47
I16: F 3.09 | D 3.84 | W 2.71 | R 3.49 | A 3.73 | E 4.17 | V 3.86 | S 3.68 | M 3.32 | K 3.49 | P 3.55
D11: C 2.55 | M 2.59 | V 2.54 | H 3.08 | E 3.18 | W 2.02 | L 2.25 | F 2.15 | Y 2.48 | Q 2.83 | T 2.75
K2: I 2.23 | S 2.97 | C 1.9 | G 3.6 | P 3.46 | R 3.13 | E 3.7 | M 2.86 | Y 2.52 | V 2.86 | H 3.19 | F 2.52 | Q 3.32
E21: K 3.1 | A 2.97 | T 2.7 | Q 3.05 | H 2.4 | D 2.86 | N 2.67 | C 2.19 | L 3.02 | F 2.16 | M 2.57 | W 2.57 | R 2.83 | G 2.57
V17: A 3.11 | F 2.74 | Y 2.94 | I 2.55 | R 3.53 | C 2.6 | L 3.07 | W 2.56 | K 3.4

Variants of: B2
Test: as above
Conditions: c terminus: a fixed tail appended

Protein stability index: each site, then its substitutions
F1: T 2.94 | V 2.41 | G 2.54 | K 2.49 | W 2.14 | P 2.82 | R 2.19 | E 2.85 | L 1.89 | I 2.46 | Y 1.91 | M 3.01 | Q 2.64 | S 2.01 | H 2.9 | N 2.88 | D 3.56 | C 1.52 | A 2.65
T2: P 2.26 | A 1.84 | I 2.6 | R 2.17 | F 1.48 | L 1.87 | V 1.96 | Q 1.91 | H 1.85 | D 2.1 | Y 1.69 | N 1.55 | K 1.79 | E 2.83 | W 2.67 | S 1.5 | C 1.91 | M 2.6 | G 2.47
P3: G 2.07 | K 2.78 | C 2 | A 1.73 | N 2.02 | L 1.98 | D 2.1 | F 1.95 | M 1.87 | I 1.63 | H 1.79 | E 2.16
